Consider three molecules from patent KR20150077749A (dated 2015).

The target in experiment [1] is T1, GRS expressed natively in human cells (HeLa cell lysate) (human, UniProt P41250 55-739, limits assumed).
T1 construct: Target of the western blot; also called human 세포에서 원래 발현된 GRS
T1 sequence (looked up): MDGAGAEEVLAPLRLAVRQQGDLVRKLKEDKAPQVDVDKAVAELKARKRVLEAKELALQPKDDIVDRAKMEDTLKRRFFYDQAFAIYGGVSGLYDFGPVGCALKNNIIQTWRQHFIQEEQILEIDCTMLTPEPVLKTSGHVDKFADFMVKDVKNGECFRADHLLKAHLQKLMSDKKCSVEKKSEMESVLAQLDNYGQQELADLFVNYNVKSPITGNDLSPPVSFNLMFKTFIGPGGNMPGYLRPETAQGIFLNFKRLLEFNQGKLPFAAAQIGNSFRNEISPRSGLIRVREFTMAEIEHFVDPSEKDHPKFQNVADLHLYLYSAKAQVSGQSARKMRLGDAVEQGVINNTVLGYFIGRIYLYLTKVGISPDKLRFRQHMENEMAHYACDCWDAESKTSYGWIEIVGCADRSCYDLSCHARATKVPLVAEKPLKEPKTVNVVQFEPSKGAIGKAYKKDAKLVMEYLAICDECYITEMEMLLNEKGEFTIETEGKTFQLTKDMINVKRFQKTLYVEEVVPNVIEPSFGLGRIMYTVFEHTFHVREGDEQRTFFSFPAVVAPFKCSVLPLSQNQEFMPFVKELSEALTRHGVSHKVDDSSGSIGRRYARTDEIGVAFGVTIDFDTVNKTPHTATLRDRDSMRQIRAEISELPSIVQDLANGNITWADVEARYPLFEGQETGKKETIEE
The experiment in a line: western blot. In general terms: Immunoblotting shows a protein as a band on a membrane.

The target of experiment [2] is T2, SRS (Seryl-tRNA synthetase), purified recombinant antigen (UniProt P49591 1-514, limits assumed).
T2 construct: also called 세릴-tRNA 합성효소
The experiment in a line: Luminex multiplex bead assay, antigen coupled to beads, anti-HA-biotin / SA-PE detection.

In experiment [3] the target is T3, YRS (Tyrosyl-tRNA synthetase), purified recombinant antigen (UniProt P54577 1-528, limits assumed).
T3 construct: also called 타이로실-tRNA 합성효소
T3 sequence (looked up): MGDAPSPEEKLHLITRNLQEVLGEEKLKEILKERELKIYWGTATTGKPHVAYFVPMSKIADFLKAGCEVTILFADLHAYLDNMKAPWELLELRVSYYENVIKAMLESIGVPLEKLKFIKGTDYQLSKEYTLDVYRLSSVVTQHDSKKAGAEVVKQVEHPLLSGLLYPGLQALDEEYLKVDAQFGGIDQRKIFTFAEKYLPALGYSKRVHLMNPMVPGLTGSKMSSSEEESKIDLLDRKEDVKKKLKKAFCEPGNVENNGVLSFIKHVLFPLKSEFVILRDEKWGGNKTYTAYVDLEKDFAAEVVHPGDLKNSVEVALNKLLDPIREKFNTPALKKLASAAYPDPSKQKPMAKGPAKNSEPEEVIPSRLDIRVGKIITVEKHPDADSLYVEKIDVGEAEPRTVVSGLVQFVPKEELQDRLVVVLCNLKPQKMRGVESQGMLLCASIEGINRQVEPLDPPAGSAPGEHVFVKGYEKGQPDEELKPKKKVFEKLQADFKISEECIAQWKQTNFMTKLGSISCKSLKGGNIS
The description is as above.

Experiment [4] concerns the target T4, AIMP1 (Aminoacyl-tRNA-synthetase-interacting multifunctional protein 1), purified recombinant antigen (UniProt Q12904 1-312, limits assumed).
T4 construct: also called AIMP1(p43); p43
T4 sequence (looked up): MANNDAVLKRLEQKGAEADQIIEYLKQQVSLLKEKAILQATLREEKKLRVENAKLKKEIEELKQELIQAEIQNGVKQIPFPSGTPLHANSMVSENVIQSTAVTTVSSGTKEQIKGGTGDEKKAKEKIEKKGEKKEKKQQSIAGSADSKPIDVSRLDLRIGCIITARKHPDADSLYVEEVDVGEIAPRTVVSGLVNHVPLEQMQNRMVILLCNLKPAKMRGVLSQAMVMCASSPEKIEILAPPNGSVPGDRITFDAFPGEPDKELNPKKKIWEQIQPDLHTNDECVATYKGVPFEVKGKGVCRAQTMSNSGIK
The experiment is described as above.

Experiment [5] concerns the target T5, WRS (Tryptophanyl-tRNA synthetase), purified recombinant antigen (UniProt P23381 1-471, limits assumed).
T5 construct: also called 트립토파닐-tRNA 합성효소
T5 sequence (looked up): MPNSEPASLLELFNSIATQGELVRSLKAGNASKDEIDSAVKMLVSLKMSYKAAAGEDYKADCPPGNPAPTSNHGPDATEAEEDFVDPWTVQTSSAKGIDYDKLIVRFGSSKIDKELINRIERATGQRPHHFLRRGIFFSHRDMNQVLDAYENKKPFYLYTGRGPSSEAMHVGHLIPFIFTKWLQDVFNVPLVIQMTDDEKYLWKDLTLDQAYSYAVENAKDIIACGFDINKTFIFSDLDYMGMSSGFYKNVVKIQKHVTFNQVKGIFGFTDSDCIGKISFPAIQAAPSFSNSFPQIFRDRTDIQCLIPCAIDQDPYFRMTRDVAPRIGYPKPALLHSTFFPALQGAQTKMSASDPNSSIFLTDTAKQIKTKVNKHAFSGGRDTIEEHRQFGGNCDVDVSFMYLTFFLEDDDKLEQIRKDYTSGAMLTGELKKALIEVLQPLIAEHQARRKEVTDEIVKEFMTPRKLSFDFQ
The description is as above.

The target in experiment [6] is T6, HRS (Histidyl-tRNA synthetase), purified recombinant antigen (UniProt P12081 1-509, limits assumed).
T6 construct: also called 히스티딜-tRNA 합성효소
T6 sequence (looked up): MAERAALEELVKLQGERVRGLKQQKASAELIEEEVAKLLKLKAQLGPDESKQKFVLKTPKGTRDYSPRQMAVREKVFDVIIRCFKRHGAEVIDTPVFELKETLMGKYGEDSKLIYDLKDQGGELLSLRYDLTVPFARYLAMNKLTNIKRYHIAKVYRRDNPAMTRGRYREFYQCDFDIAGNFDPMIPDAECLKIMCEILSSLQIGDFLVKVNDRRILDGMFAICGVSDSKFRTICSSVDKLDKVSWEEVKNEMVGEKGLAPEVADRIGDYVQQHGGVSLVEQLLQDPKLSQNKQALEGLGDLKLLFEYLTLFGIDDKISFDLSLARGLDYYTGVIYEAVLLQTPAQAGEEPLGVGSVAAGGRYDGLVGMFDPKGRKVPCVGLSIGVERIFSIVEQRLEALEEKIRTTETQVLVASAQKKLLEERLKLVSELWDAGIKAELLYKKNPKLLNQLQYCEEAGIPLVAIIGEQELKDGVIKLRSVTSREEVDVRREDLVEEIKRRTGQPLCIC
The description is as above.

Experiment [7] deals with T7, NRS (Asparaginyl-tRNA synthetase), purified recombinant antigen (UniProt O43776 1-548, limits assumed).
T7 construct: also called 아스파라기닐딜-tRNA 합성효소
T7 sequence (looked up): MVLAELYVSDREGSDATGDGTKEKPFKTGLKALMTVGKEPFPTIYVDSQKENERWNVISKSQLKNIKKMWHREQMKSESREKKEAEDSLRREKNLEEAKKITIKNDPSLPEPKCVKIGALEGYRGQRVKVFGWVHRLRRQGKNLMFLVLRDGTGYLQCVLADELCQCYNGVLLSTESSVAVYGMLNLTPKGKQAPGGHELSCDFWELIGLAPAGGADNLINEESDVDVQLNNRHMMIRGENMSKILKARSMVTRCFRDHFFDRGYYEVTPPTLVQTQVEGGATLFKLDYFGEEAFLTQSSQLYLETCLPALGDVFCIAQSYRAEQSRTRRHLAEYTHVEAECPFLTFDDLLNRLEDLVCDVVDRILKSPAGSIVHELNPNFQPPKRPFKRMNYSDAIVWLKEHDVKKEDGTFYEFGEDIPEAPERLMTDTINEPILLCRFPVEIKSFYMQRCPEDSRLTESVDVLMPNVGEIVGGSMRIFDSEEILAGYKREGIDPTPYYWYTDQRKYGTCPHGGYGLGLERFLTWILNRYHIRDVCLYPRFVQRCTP
The experiment is described as above.

Experiment [8] concerns the target T8, KRS (Lysyl-tRNA synthetase), purified recombinant antigen (UniProt Q15046 1-597, limits assumed).
T8 construct: also called 리실-tRNA 합성효소
Described as above.

T2 sequence (P49591 whole entry): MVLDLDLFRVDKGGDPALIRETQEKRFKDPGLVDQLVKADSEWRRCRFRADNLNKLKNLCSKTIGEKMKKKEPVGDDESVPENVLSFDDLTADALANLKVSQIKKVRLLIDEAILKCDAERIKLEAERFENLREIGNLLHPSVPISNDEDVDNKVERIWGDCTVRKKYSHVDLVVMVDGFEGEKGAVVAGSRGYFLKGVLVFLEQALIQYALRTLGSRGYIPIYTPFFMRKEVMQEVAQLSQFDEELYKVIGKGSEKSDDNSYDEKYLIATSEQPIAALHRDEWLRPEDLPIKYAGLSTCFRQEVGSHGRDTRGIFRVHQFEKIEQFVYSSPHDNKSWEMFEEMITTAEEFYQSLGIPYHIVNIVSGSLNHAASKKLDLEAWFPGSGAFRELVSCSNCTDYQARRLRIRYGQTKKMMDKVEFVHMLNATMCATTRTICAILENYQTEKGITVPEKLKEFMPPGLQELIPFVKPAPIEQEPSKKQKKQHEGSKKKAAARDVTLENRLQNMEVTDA
T8 sequence (Q15046 whole entry): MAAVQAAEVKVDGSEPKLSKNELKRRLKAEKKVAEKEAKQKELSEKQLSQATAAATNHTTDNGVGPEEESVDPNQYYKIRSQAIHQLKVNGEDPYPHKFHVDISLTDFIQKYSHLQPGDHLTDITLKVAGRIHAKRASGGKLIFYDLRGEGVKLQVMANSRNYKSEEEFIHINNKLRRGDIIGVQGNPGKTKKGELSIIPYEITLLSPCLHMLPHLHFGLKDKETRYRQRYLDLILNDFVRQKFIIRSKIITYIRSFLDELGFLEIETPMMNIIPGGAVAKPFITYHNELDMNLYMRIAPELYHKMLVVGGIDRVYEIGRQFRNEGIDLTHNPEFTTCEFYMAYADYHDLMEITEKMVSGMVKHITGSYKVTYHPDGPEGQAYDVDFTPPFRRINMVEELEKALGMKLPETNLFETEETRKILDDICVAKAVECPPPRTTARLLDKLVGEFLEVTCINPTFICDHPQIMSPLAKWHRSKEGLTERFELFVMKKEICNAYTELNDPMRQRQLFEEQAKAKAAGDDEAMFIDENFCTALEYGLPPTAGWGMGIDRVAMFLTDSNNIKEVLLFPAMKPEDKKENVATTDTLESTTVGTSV

B1: anti-GRS scFv, SEQ ID NO 27 (antibody ii) (scFv)
scFv: EVQLLESGGGLVQPGGSLRLSCAASGFTFSGYDMSWVRQAPGKGLEWVSAIYSDSGSTYYADSVKGRFTISRDNSKNTLYLQMNSLRAEDTAVYYCARNTALFDYWGQGTLVTVSSGGGGSGGGGSGGGGSQSVLTQPPSASGTPGQRVTISCSGSSSNIGSNYVTWYQQLPGTAPKLLIYANNHRPSGVPDRFSGSKSGTSASLAISGLRSEDEADYYCGAWDASLSGYVFGGGTKLTVL
notes: One of the three scFvs selected by phage display, expressed from pComb3X in the E. coli periplasm; His and HA tags were used for purification and detection; also called 본 발명의 항체; 항 GRS scFv 항체
Turning to B1, the binding result in experiment [1] was “binds”; in experiment [2], “no binding”; in experiment [3], “no binding”; in experiment [4] it was “no binding”; in experiment [5], “no binding”; in experiment [6] it was “no binding”. The binding result in experiment [7] and in experiment [8] was “no binding” in each case.

B2: anti-GRS scFv, SEQ ID NO 13 (antibody i) (scFv)
scFv: EVQLLESGGGLVQPGGSLRLSCAASGFTFSDYDMSWVRQAPGKGLEWVSAISPDDGSKYYADSVKGRFTISRDNSKNTLYLQMNSLRAEDTAVYYCARTTWLFDYWGQGTLVTVSSGGGGSGGGGSGGGGSQSVLTQPPSASGTPGQRVTISCTGSSSNIGNNYVNWYQQLPGTAPKLLIYADSHRPSGVPDRFSGSKSGTSASLAISGLRSEDEADYYCGAWDSSLSGYVFGGGTKLTVL
notes: One of the three scFvs selected by phage display (human VH3-23/VL1g framework), expressed from pComb3X in the E. coli periplasm; It was purified on Ni-NTA and detected with anti-HA, so it carries His and HA tags; Every result written here is told alike for all three scFvs; also called 본 발명의 항체; 항 GRS scFv 항체
B2: the binding result in experiment [2], in experiment [3], in experiment [4], in experiment [5], in experiment [6] and in experiment [7] was “no binding” throughout. Besides, in experiment [8], the binding result is given as “no binding”.

B3: anti-GRS scFv, SEQ ID NO 41 (antibody iii) (scFv)
scFv: EVQLLESGGGLVQPGGSLRLSCAASGFTFSNYDMSWVRQAPGKGLEWVSWIYSNGSSTYYADSVKGRFTISRDNSKNTLYLQMNSLRAEDTAVYYCARITCMFDYWGQGTLVTVSSGGGGSGGGGSGGGGSQSVLTQPPSASGTPGQRVTISCSGSSSNIGSNYVTWYQQLPGTAPKLLIYADSHRPSGVPDRFSGSKSGTSASLAISGLRSEDEADYYCGSWDYSLNGYVFGGGTKLTVL
notes: as for B1
Consider B3, for which the binding result in experiment [1] was “binds”; in experiment [2], “no binding”; in experiment [3], “no binding”; in experiment [4], “no binding”; in experiment [5] it was “no binding”; in experiment [6], “no binding”. The binding result in experiment [7] and in experiment [8] was “no binding” throughout.
